Results taken from US9260500B2, “Peptide and use thereof” (Takeda Pharmaceutical Company Limited, priority 2009, dated 2016).
Non-standard residues stand in square brackets, D forms with d. No end group written: not given here. *: point of attachment. 4‑Guanidinomethylbenzoyl = N=C(N)NCc1ccc(C(=O)*)cc1; 4Pal = N[C@@H](Cc1ccncc1)C(=O)O; dHyp = O=C(O)[C@H]1C[C@H](O)CN1; Cha = N[C@@H](CC1CCCCC1)C(=O)O; Isonicotinoyl = O=C(c1ccncc1)*; Isobutyryl = CC(C)C(=O)*; Iva = CC[C@](C)(N)C(=O)O; NMeA = CN[C@@H](C)C(=O)O; Nle = CCCC[C@H](N)C(=O)O; Abu = CC[C@H](N)C(=O)O; Aib = CC(C)(N)C(=O)O; Bz = O=C(c1ccccc1)*; βAla = NCCC(=O)O

Tests used:
human Y2 receptor [1] = target: T1, human Y2 receptor (Homo sapiens, UniProt P49146); assay: Receptor Binding Assay (RBA) for Human Y2, [125I]-PYY displacement on hY2R/CHO membrane fraction; conditions: IC50 of test compound/IC50 of PYY(3-36) (PYY(3-36) taken as 1)
T1 construct: expressed in transfected cells; membrane fraction
T1 sequence (P49146 1-381): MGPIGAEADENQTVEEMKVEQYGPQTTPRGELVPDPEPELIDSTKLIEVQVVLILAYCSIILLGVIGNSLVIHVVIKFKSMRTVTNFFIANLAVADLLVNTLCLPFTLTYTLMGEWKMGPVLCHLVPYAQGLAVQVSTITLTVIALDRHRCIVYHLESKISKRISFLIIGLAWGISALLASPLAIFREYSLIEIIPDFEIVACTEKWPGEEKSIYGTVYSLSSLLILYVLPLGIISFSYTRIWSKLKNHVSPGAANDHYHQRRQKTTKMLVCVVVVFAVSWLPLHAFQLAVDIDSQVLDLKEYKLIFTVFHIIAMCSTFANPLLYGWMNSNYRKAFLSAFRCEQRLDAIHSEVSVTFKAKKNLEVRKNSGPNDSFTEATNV
Method in brief: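 Read-out is [125I]-PYY displacement from membranes of CHO/dhfr− cells stably transfected with human Y2R. Membranes were obtained by disrupting cells in a buffer of 10 mM NaHCO3, 5 mM EDTA and protease inhibitors.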

human Y2 receptor [2] = target: T1, human Y2 receptor; assay: Human Y2 Receptor G Protein Binding Assay (GBA), [35S]GTPγS; assay type: biochemical; conditions: EC50 of test compound/EC50 of PYY(3-36) (PYY3-36 taken as 1), hY2R/CHO membrane fraction
Method in brief: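 Agonism measured as [35S]GTPγS binding, read by GF/C filtration and scintillation counting after 120 min at room temperature, using human Y2 membranes at 1 μg protein/mL in pH 7.4 Tris/MgCl2/NaCl/GDP buffer. Compound serially diluted 100 μM–1 nM; EC50 normalized to PYY(3-36) (ratio = compound/PYY).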

| Substance | RBA IC50 Ratio (human Y2 receptor [1]) | GBA EC50 Ratio (human Y2 receptor [2]) |
| --- | --- | --- |
| Isobutanoyl-[Abu26, Cha27,36, Gln28, Aib31]-PYY(25-36) (Isobutyryl-R[Abu][Cha]QNL[Aib]TRQR[Cha]-NH2; SMILES CC[C@H](NC(=O)[C@H](CCCNC(=N)N)NC(=O)C(C)C)C(=O)N[C@@H](CC1CCCCC1)C(=O)N[C@@H](CCC(N)=O)C(=O)N[C@@H](CC(N)=O)C(=O)N[C@@H](CC(C)C)C(=O)NC(C)(C)C(=O)N[C@H](C(=O)N[C@@H](CCCNC(=N)N)C(=O)N[C@@H](CCC(N)=O)C(=O)N[C@@H](CCCNC(=N)N)C(=O)N[C@@H](CC1CCCCC1)C(N)=O)[C@@H](C)O) [compound No. 100] | 45 | 30 |
| Ac-[D-Pro24, Pya(4)26, Cha27,36, Aib28,31, Orn30]-PYY(23-36) [compound No. 206] | 1.5 | 0.83 |
| Ac-[βAla24, Pya(4)26, Cha27,36, Aib28,31, Lys30]-PYY(23-36) (Ac-S[βAla]R[4Pal][Cha][Aib]NK[Aib]TRQR[Cha]-NH2; SMILES CC(=O)N[C@@H](CO)C(=O)NCCC(=O)N[C@@H](CCCNC(=N)N)C(=O)N[C@@H](Cc1ccncc1)C(=O)N[C@@H](CC1CCCCC1)C(=O)NC(C)(C)C(=O)N[C@@H](CC(N)=O)C(=O)N[C@@H](CCCCN)C(=O)NC(C)(C)C(=O)N[C@H](C(=O)N[C@@H](CCCNC(=N)N)C(=O)N[C@@H](CCC(N)=O)C(=O)N[C@@H](CCCNC(=N)N)C(=O)N[C@@H](CC1CCCCC1)C(N)=O)[C@@H](C)O) [compound No. 222] | 1.9 | 1.1 |
| Ac-[Glu23, D-Pro24, Pya(4)26, Cha27,36, Aib28,31, Lys30]-PYY(22-36) (Ac-AE[dP]R[4Pal][Cha][Aib]NK[Aib]TRQR[Cha]-NH2; SMILES CC(=O)N[C@@H](C)C(=O)N[C@@H](CCC(=O)O)C(=O)N1CCC[C@@H]1C(=O)N[C@@H](CCCNC(=N)N)C(=O)N[C@@H](Cc1ccncc1)C(=O)N[C@@H](CC1CCCCC1)C(=O)NC(C)(C)C(=O)N[C@@H](CC(N)=O)C(=O)N[C@@H](CCCCN)C(=O)NC(C)(C)C(=O)N[C@H](C(=O)N[C@@H](CCCNC(=N)N)C(=O)N[C@@H](CCC(N)=O)C(=O)N[C@@H](CCCNC(=N)N)C(=O)N[C@@H](CC1CCCCC1)C(N)=O)[C@@H](C)O) [compound No. 220] | 5.3 | 3.5 |
| Ac-[Lys22,30, D-Pro24, Pya(4)26, Cha27,36, Aib28,31]-PYY(22-36) (Ac-KS[dP]R[4Pal][Cha][Aib]NK[Aib]TRQR[Cha]-NH2; SMILES CC(=O)N[C@@H](CCCCN)C(=O)N[C@@H](CO)C(=O)N1CCC[C@@H]1C(=O)N[C@@H](CCCNC(=N)N)C(=O)N[C@@H](Cc1ccncc1)C(=O)N[C@@H](CC1CCCCC1)C(=O)NC(C)(C)C(=O)N[C@@H](CC(N)=O)C(=O)N[C@@H](CCCCN)C(=O)NC(C)(C)C(=O)N[C@H](C(=O)N[C@@H](CCCNC(=N)N)C(=O)N[C@@H](CCC(N)=O)C(=O)N[C@@H](CCCNC(=N)N)C(=O)N[C@@H](CC1CCCCC1)C(N)=O)[C@@H](C)O) [compound No. 272] | 1.1 | 1.0 |
| 4-Pyridinecarbonyl-[Glu23, D-Pro24, Nle25, Pya(4)26, Cha27,36, Aib28,31, Lys30]-PYY(23-36) (Isonicotinoyl-E[dP][Nle][4Pal][Cha][Aib]NK[Aib]TRQR[Cha]-NH2; SMILES CCCC[C@H](NC(=O)[C@H]1CCCN1C(=O)[C@H](CCC(=O)O)NC(=O)c1ccncc1)C(=O)N[C@@H](Cc1ccncc1)C(=O)N[C@@H](CC1CCCCC1)C(=O)NC(C)(C)C(=O)N[C@@H](CC(N)=O)C(=O)N[C@@H](CCCCN)C(=O)NC(C)(C)C(=O)N[C@H](C(=O)N[C@@H](CCCNC(=N)N)C(=O)N[C@@H](CCC(N)=O)C(=O)N[C@@H](CCCNC(=N)N)C(=O)N[C@@H](CC1CCCCC1)C(N)=O)[C@@H](C)O) [compound No. 228] | 8.1 | 5.7 |
| Ac-[Gln23, D-Pro24, Pya(4)26, Cha27,36, Aib28,31, Lys30]-PYY(23-36) (Ac-Q[dP]R[4Pal][Cha][Aib]NK[Aib]TRQR[Cha]-NH2; SMILES CC(=O)N[C@@H](CCC(N)=O)C(=O)N1CCC[C@@H]1C(=O)N[C@@H](CCCNC(=N)N)C(=O)N[C@@H](Cc1ccncc1)C(=O)N[C@@H](CC1CCCCC1)C(=O)NC(C)(C)C(=O)N[C@@H](CC(N)=O)C(=O)N[C@@H](CCCCN)C(=O)NC(C)(C)C(=O)N[C@H](C(=O)N[C@@H](CCCNC(=N)N)C(=O)N[C@@H](CCC(N)=O)C(=O)N[C@@H](CCCNC(=N)N)C(=O)N[C@@H](CC1CCCCC1)C(N)=O)[C@@H](C)O) [compound No. 210] | 1.3 | 0.9 |
| Isobutanoyl-[Abu26,27, Cha28,36, Aib31]-PYY(25-36) (Isobutyryl-R[Abu][Abu][Cha]NL[Aib]TRQR[Cha]-NH2; SMILES CC[C@H](NC(=O)[C@H](CCCNC(=N)N)NC(=O)C(C)C)C(=O)N[C@@H](CC)C(=O)N[C@@H](CC1CCCCC1)C(=O)N[C@@H](CC(N)=O)C(=O)N[C@@H](CC(C)C)C(=O)NC(C)(C)C(=O)N[C@H](C(=O)N[C@@H](CCCNC(=N)N)C(=O)N[C@@H](CCC(N)=O)C(=O)N[C@@H](CCCNC(=N)N)C(=O)N[C@@H](CC1CCCCC1)C(N)=O)[C@@H](C)O) [compound No. 94] | 31 | 37 |
| Ac-[Glu23, D-Hyp24, Pya(4)26, Cha27,36, Aib28,31, Lys30]-PYY(23-36) (Ac-E[dHyp]R[4Pal][Cha][Aib]NK[Aib]TRQR[Cha]-NH2; SMILES CC(=O)N[C@@H](CCC(=O)O)C(=O)N1C[C@@H](O)C[C@@H]1C(=O)N[C@@H](CCCNC(=N)N)C(=O)N[C@@H](Cc1ccncc1)C(=O)N[C@@H](CC1CCCCC1)C(=O)NC(C)(C)C(=O)N[C@@H](CC(N)=O)C(=O)N[C@@H](CCCCN)C(=O)NC(C)(C)C(=O)N[C@H](C(=O)N[C@@H](CCCNC(=N)N)C(=O)N[C@@H](CCC(N)=O)C(=O)N[C@@H](CCCNC(=N)N)C(=O)N[C@@H](CC1CCCCC1)C(N)=O)[C@@H](C)O) [compound No. 208] | 3.4 | 2.2 |
| 4-Guanidinomethylbenzoyl-[Nle25, Cha27,28,31,36, Arg30]-PYY(25-36) ({4‑Guanidinomethylbenzoyl}-[Nle]H[Cha][Cha]NR[Cha]TRQR[Cha]-NH2; SMILES CCCC[C@H](NC(=O)c1ccc(CNC(=N)N)cc1)C(=O)N[C@@H](Cc1c[nH]cn1)C(=O)N[C@@H](CC1CCCCC1)C(=O)N[C@@H](CC1CCCCC1)C(=O)N[C@@H](CC(N)=O)C(=O)N[C@@H](CCCNC(=N)N)C(=O)N[C@@H](CC1CCCCC1)C(=O)N[C@H](C(=O)N[C@@H](CCCNC(=N)N)C(=O)N[C@@H](CCC(N)=O)C(=O)N[C@@H](CCCNC(=N)N)C(=O)N[C@@H](CC1CCCCC1)C(N)=O)[C@@H](C)O) [compound No. 76] | 7.2 | 4.5 |
| Benzoyl-[Asn26, Cha27,28,36, Aib31]-PYY(25-36) (Bz-RN[Cha][Cha]NL[Aib]TRQR[Cha]-NH2; SMILES CC(C)C[C@H](NC(=O)[C@H](CC(N)=O)NC(=O)[C@H](CC1CCCCC1)NC(=O)[C@H](CC1CCCCC1)NC(=O)[C@H](CC(N)=O)NC(=O)[C@H](CCCNC(=N)N)NC(=O)c1ccccc1)C(=O)NC(C)(C)C(=O)N[C@H](C(=O)N[C@@H](CCCNC(=N)N)C(=O)N[C@@H](CCC(N)=O)C(=O)N[C@@H](CCCNC(=N)N)C(=O)N[C@@H](CC1CCCCC1)C(N)=O)[C@@H](C)O) [compound No. 99] | 19 | 21 |
| Ac-[D-Pro24, Iva26, Cha27,28,36, Aib31]-PYY(23-36) (Ac-S[dP]R[Iva][Cha][Cha]NL[Aib]TRQR[Cha]-NH2; SMILES CC[C@](C)(NC(=O)[C@H](CCCNC(=N)N)NC(=O)[C@H]1CCCN1C(=O)[C@H](CO)NC(C)=O)C(=O)N[C@@H](CC1CCCCC1)C(=O)N[C@@H](CC1CCCCC1)C(=O)N[C@@H](CC(N)=O)C(=O)N[C@@H](CC(C)C)C(=O)NC(C)(C)C(=O)N[C@H](C(=O)N[C@@H](CCCNC(=N)N)C(=O)N[C@@H](CCC(N)=O)C(=O)N[C@@H](CCCNC(=N)N)C(=O)N[C@@H](CC1CCCCC1)C(N)=O)[C@@H](C)O) [compound No. 176] | 5.2 | 4.2 |
| [MeAla22, D-Pro24, Cha27,28,36, Aib31]-PYY(22-36) ([NMeA]S[dP]RH[Cha][Cha]NL[Aib]TRQR[Cha]-NH2; N-terminus assumed; SMILES CN[C@@H](C)C(=O)N[C@@H](CO)C(=O)N1CCC[C@@H]1C(=O)N[C@@H](CCCNC(=N)N)C(=O)N[C@@H](Cc1c[nH]cn1)C(=O)N[C@@H](CC1CCCCC1)C(=O)N[C@@H](CC1CCCCC1)C(=O)N[C@@H](CC(N)=O)C(=O)N[C@@H](CC(C)C)C(=O)NC(C)(C)C(=O)N[C@H](C(=O)N[C@@H](CCCNC(=N)N)C(=O)N[C@@H](CCC(N)=O)C(=O)N[C@@H](CCCNC(=N)N)C(=O)N[C@@H](CC1CCCCC1)C(N)=O)[C@@H](C)O) [compound No. 123] | 0.6 | 0.72 |
